Consider four molecules from patent EP4803150A2 (Lyvgen Biopharma Holdings Limited, dated 2026).

This assay addresses T1, CD3 (human).
T1 chain: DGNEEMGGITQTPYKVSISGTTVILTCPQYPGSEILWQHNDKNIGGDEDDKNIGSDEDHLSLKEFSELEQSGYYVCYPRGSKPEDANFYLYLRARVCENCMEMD
Nature of the assay: CD3 binding as in Example 2 (ELISA or FCM). Background: In an ELISA, binding on a coated surface is turned into a signal by an enzyme label.

B1: Anti-CD3 Ly305 (antibody, V domains shown)
VH: EVQLVESGGGLVQPGGSLRLSCAASGFTFSTYAMNWVRQAPGKGLEWVGRIRSKYNNYATYYADSVKGRFTISRDDSKNSLYLQMNSLKTEDTAVYYCVRHGNFGNSYVSWFAYWGQGTLVTVSS
VL: QAVVTQEPSLTVSPGGTVTLTCRSSTGAVTTSNYANWVQQKPGQAPRGLIGGTNKRAPWTPARFSGSLLGGKAALTITGAQAEDEADYYCALWYSNLWVFGGGTKLTVL
notes: Parent mAb; also called CD3 mAb Ly305
For orientation: EC50 means the concentration that produces a half-maximal response. Higher therefore signals a need for much substance. Molecule B1 registered an EC50 of 0.03 µg/mL.

B2: Ly1963 (multi-specific antibody)
chain 1: QVQLVQSGAEVKKPGASVKVSCKASGYTFTSYVMHWVRQKPGQGLEWIGYINPYNEGTESTDKFKGRATMTSDKSTSTVYMELSSLRSEDTAVYYCASIYYGYEGTYFGVWGQGTLVTVSSASTKGPSVFPLAPSSKSTSGGTAALGCLVKDYFPEPVTVSWNSGALTSGVHTFPAVLQSSGLYSLSSVVTVPSSSLGTQTYICNVNHKPSNTKVDKKVEPKSCGGGGSGGGGSGGGGSGGGGSEVQLVESGGGLVQPGGSLRLSCAASGFTFSTYAMNWVRQAPGKGLEWVGRIRSKYNNYATYYADSVKGRFTISRDDSKNSLYLQMNSLKTEDTAVYYCVRHGNFGNSYVSWFAYWGQGTLVTVSSGGGGSDKTHTCPPCPAPEAAGPSVFLFPPKPKDTLMISRTPEVTCVVVDVSHEDPEVKFNWYVDGVEVHNAKTKPREEQYNSTYRVVSVLTVLHQDWLNGKEYKCKVSNKALPAPIEKTISKAKGQPREPQVYTLPPSREEMTKNQVSLWCLVKGFYPSDIAVEWESNGQPENNYKTTPPVLDSDGSFFLYSKLTVDKSRWQQGNVFSCSVMHEALHNHYTQKSLSLSPGGGGGSGGGGSGGGGSGGGGSQVQLVQSGAEVKKPGASVKVSCKASGYTFAGFEMHWVRQAPGQGLEWMGAIDPKTGGTDYNQKFKDRVTMTRDTSISTAYMELSRLRSDDTAVYYCARDLGYFDVWGQGTLVTVSS
chain 2: QVQLVQSGAEVKKPGASVKVSCKASGYTFTSYVMHWVRQKPGQGLEWIGYINPYNEGTESTDKFKGRATMTSDKSTSTVYMELSSLRSEDTAVYYCASIYYGYEGTYFGVWGQGTLVTVSSASTKGPSVFPLAPSSKSTSGGTAALGCLVKDYFPEPVTVSWNSGALTSGVHTFPAVLQSSGLYSLSSVVTVPSSSLGTQTYICNVNHKPSNTKVDKKVEPKSCGGGGSGGGGSGGGGSGGGGSQAVVTQEPSLTVSPGGTVTLTCRSSTGAVTTSNYANWVQQKPGQAPRGLIGGTNKRAPWTPARFSGSLLGGKAALTITGAQAEDEADYYCALWYSNLWVFGGGTKLTVLGGGGSDKTHTCPPCPAPEAAGPSVFLFPPKPKDTLMISRTPEVTCVVVDVSHEDPEVKFNWYVDGVEVHNAKTKPREEQYNSTYRVVSVLTVLHQDWLNGKEYKCKVSNKALPAPIEKTISKAKGQPREPQVYTLPPSREEMTKNQVSLSCAVKGFYPSDIAVEWESNGQPENNYKTTPPVLDSDGSFFLVSKLTVDKSRWQQGNVFSCSVMHEALHNHYTQKSLSLSPGGGGGSGGGGSGGGGSGGGGSDIQMTQSPSSLSASVGDRVTITCRASQDIRSNLNWYQQKPGGAVKLLIYYTSRLHSGVPSRFSGSGSGTDYTLTISSLQPEDFATYFCQQSEKLPRTFGGGTKVEIR
chain 3: EIVLTQSPATLSLSPGERATLSCRASSSVSYMHWYQQKPGQAPRPWIYATSNLASGIPARFSGSRSGTDYTLTISSLEPEDFAVYYCQQWSSNTLTFGGGTKVEIKRTVAAPSVFIFPPSDEQLKSGTASVVCLLNNFYPREAKVQWKVDNALQSGNSQESVTEQDSKDSTYSLSSTLTLSKADYEKHKVYACEVTHQGLSSPVTKSFNRGEC
notes: Trispecific B7H3/CD3/CD137
The molecule B2 yielded an EC50 of 0.74 µg/mL.

B3: Ly1965 (bispecific antibody)
chain 1: QVQLVQSGAEVKKPGASVKVSCKASGYTFTSYVMHWVRQKPGQGLEWIGYINPYNEGTESTDKFKGRATMTSDKSTSTVYMELSSLRSEDTAVYYCASIYYGYEGTYFGVWGQGTLVTVSSASTKGPSVFPLAPSSKSTSGGTAALGCLVKDYFPEPVTVSWNSGALTSGVHTFPAVLQSSGLYSLSSVVTVPSSSLGTQTYICNVNHKPSNTKVDKKVEPKSCGGGGSGGGGSGGGGSGGGGSEVQLVESGGGLVQPGGSLRLSCAASGFTFSTYAMNWVRQAPGKGLEWVGRIRSKYNNYATYYADSVKGRFTISRDDSKNSLYLQMNSLKTEDTAVYYCVRHGNFGNSYVSWFAYWGQGTLVTVSSGGGGSDKTHTCPPCPAPEAAGPSVFLFPPKPKDTLMISRTPEVTCVVVDVSHEDPEVKFNWYVDGVEVHNAKTKPREEQYNSTYRVVSVLTVLHQDWLNGKEYKCKVSNKALPAPIEKTISKAKGQPREPQVYTLPPSREEMTKNQVSLWCLVKGFYPSDIAVEWESNGQPENNYKTTPPVLDSDGSFFLYSKLTVDKSRWQQGNVFSCSVMHEALHNHYTQKSLSLSPG
chain 2: QVQLVQSGAEVKKPGASVKVSCKASGYTFTSYVMHWVRQKPGQGLEWIGYINPYNEGTESTDKFKGRATMTSDKSTSTVYMELSSLRSEDTAVYYCASIYYGYEGTYFGVWGQGTLVTVSSASTKGPSVFPLAPSSKSTSGGTAALGCLVKDYFPEPVTVSWNSGALTSGVHTFPAVLQSSGLYSLSSVVTVPSSSLGTQTYICNVNHKPSNTKVDKKVEPKSCGGGGSGGGGSGGGGSGGGGSQAVVTQEPSLTVSPGGTVTLTCRSSTGAVTTSNYANWVQQKPGQAPRGLIGGTNKRAPWTPARFSGSLLGGKAALTITGAQAEDEADYYCALWYSNLWVFGGGTKLTVLGGGGSDKTHTCPPCPAPEAAGPSVFLFPPKPKDTLMISRTPEVTCVVVDVSHEDPEVKFNWYVDGVEVHNAKTKPREEQYNSTYRVVSVLTVLHQDWLNGKEYKCKVSNKALPAPIEKTISKAKGQPREPQVYTLPPSREEMTKNQVSLSCAVKGFYPSDIAVEWESNGQPENNYKTTPPVLDSDGSFFLVSKLTVDKSRWQQGNVFSCSVMHEALHNRFTQKSLSLSPG
chain 3: B2 chain 3
notes: B7H3/CD3
B3 showed an EC50 of 0.419 µg/mL.

B4: Ly2128 (multi-specific antibody)
chain 1: QVQLVQSGAEVKKPGASVKVSCKASGYTFTSYVMHWVRQKPGQGLEWIGYINPYNEGTESTDKFKGRATMTSDKSTSTVYMELSSLRSEDTAVYYCASIYYGYEGTYFGVWGQGTLVTVSSASTKGPSVFPLAPSSKSTSGGTAALGCLVKDYFPEPVTVSWNSGALTSGVHTFPAVLQSSGLYSLSSVVTVPSSSLGTQTYICNVNHKPSNTKVDKKVEPKSCGGGGSGGGGSGGGGSGGGGSEVQLVESGGGLVQPGGSLRLSCAASGFTFSTYAMNWVRQAPGKGLEWVGRIRSKYNNYATYYADSVKGRFTISRDDSKNSLYLQMNSLKTEDTAVYYCVRHGNFGNSYVSWFAYWGQGTLVTVSSGGGGSDKTHTCPPCPAPEAAGPSVFLFPPKPKDTLMISRTPEVTCVVVDVSHEDPEVKFNWYVDGVEVHNAKTKPREEQYNSTYRVVSVLTVLHQDWLNGKEYKCKVSNKALPAPIEKTISKAKGQPREPQVYTLPPSREEMTKNQVSLWCLVKGFYPSDIAVEWESNGQPENNYKTTPPVLDSDGSFFLYSKLTVDKSRWQQGNVFSCSVMHEALHNHYTQKSLSLSPGGGGGSGGGGSGGGGSGGGGSQVQLVQSGAEVKKPGASVKVSCKASGYTFTSYYIHWVRQAPGQGLEWIGCIYPGNVNTNYNEKFKDRATLTVDTSISTAYMELSRLRSDDTAVYFCTRSHYGLDWNFDVWGQGTTVTVSS
chain 2: not shown
chain 3: B2 chain 3
notes: Tri-specific B7H3/CD3/CD28
B4 returned an EC50 of 1.08 µg/mL.
